Key:
[1] = system: GFP-14-3-3β and its binding proteins; test: GFP-14-3-3β co-IP with LC-MS/MS label-free quantification, untreated versus PP1c-treated; parameters: species or system human
GFP-14-3-3β = GFP-14-3-3β co-IP with LC-MS/MS, untreated GFP-14-3-3β versus GFP control (14-3-3 interactome); assay type: binding, human
[2] = GFP-14-3-3β co-IP LC-MS/MS, PP1 vs untreated, student's t-test, label-free quantification, 3 replicates each
[3] = GFP-14-3-3β co-IP LC-MS/MS, untreated vs GFP, student's t-test, label-free quantification, 3 replicates each

| Difference (log2), PP1 vs untreated [1, 2] [log2] | Molecule | Difference (log2), untreated vs GFP (GFP-14-3-3β; [3]) [log2] | also measured |
| --- | --- | --- | --- |
|  | AP2A1 (protein, UniProt O95782 1-977, looked up) AP-2 complex subunit alpha-1: MPAVSKGDGMRGLAVFISDIRNCKSKEAEIKRINKELANIRSKFKGDKALDGYSKKKYVCKLLFIFLLGHDIDFGHMEAVNLLSSNKYTEKQIGYLFISVLVNSNSELIRLINNAIKNDLASRNPTFMCLALHCIANVGSREMGEAFAADIPRILVAGDSMDSVKQSAALCLLRLYKASPDLVPMGEWTARVVHLLNDQHMGVVTAAVSLITCLCKKNPDDFKTCVSLAVSRLSRIVSSASTDLQDYTYYFVPAPWLSVKLLRLLQCYPPPEDAAVKGRLVECLETVLNKAQEPPKSKKVQHSNAKNAILFETISLIIHYDSEPNLLVRACNQLGQFLQHRETNLRYLALESMCTLASSEFSHEAVKTHIDTVINALKTERDVSVRQRAADLLYAMCDRSNAKQIVSEMLRYLETADYAIREEIVLKVAILAEKYAVDYSWYVDTILNLIRIAGDYVSEEVWYRVLQIVTNRDDVQGYAAKTVFEALQAPACHENMVKVGGYILGEFGNLIAGDPRSSPPVQFSLLHSKFHLCSVATRALLLSTYIKFINLFPETKATIQGVLRAGSQLRNADVELQQRAVEYLTLSSVASTDVLATVLEEMPPFPERESSILAKLKRKKGPGAGSALDDGRRDPSSNDINGGMEPTPSTVSTPSPSADLLGLRAAPPPAAPPASAGAGNLLVDVFDGPAAQPSLGPTPEEAFLSELEPPAPESPMALLADPAPAADPGPEDIGPPIPEADELLNKFVCKNNGVLFENQLLQIGVKSEFRQNLGRMYLFYGNKTSVQFQNFSPTVVHPGDLQTQLAVQTKRVAAQVDGGAQVQQVLNIECLRDFLTPPLLSVRFRYGGAPQALTLKLPVTINKFFQPTEMAAQDFFQRWKQLSLPQQEAQKIFKANHPMDAEVTKAKLLGFGSALLDNVDPNPENFVGAGIIQTKALQVGCLLRLEPNAQAQMYRLTLRTSKEPVSRHLCELLAQQF |  | Difference (log2), PP1 vs untreated ([1]; pairwise comparison PP1 vs untreated): -0.1358 log2; Difference (log2), untreated vs GFP (GFP-14-3-3β; pairwise comparison untreated vs GFP): 1.114 log2 |
| -0.1595 | DSG2 (protein, UniProt Q14126 50-1118, looked up) Desmoglein-2: AWITAPVALREGEDLSKKNPIAKIHSDLAEERGLKITYKYTGKGITEPPFGIFVFNKDTGELNVTSILDREETPFFLLTGYALDARGNNVEKPLELRIKVLDINDNEPVFTQDVFVGSVEELSAAHTLVMKINATDADEPNTLNSKISYRIVSLEPAYPPVFYLNKDTGEIYTTSVTLDREEHSSYTLTVEARDGNGEVTDKPVKQAQVQIRILDVNDNIPVVENKVLEGMVEENQVNVEVTRIKVFDADEIGSDNWLANFTFASGNEGGYFHIETDAQTNEGIVTLIKEVDYEEMKNLDFSVIVANKAAFHKSIRSKYKPTPIPIKVKVKNVKEGIHFKSSVISIYVSESMDRSSKGQIIGNFQAFDEDTGLPAHARYVKLEDRDNWISVDSVTSEIKLAKLPDFESRYVQNGTYTVKIVAISEDYPRKTITGTVLINVEDINDNCPTLIEPVQTICHDAEYVNVTAEDLDGHPNSGPFSFSVIDKPPGMAEKWKIARQESTSVLLQQSEKKLGRSEIQFLISDNQGFSCPEKQVLTLTVCECLHGSGCREAQHDSYVGLGPAAIALMILAFLLLLLVPLLLLMCHCGKGAKGFTPIPGTIEMLHPWNNEGAPPEDKVVPSFLPVDQGGSLVGRNGVGGMAKEATMKGSSSASIVKGQHEMSEMDGRWEEHRSLLSGRATQFTGATGAIMTTETTKTARATGASRDMAGAQAAAVALNEEFLRNYFTDKAASYTEEDENHTAKDCLLVYSQEETESLNASIGCCSFIEGELDDRFLDDLGLKFKTLAEVCLGQKIDINKEIEQRQKPATETSMNTASHSLCEQTMVNSENTYSSGSSFPVPKSLQEANAEKVTQEIVTERSVSSRQAQKVATPLPDPMASRNVIATETSYVTGSTMPPTTVILGPSQPQSLIVTERVYAPASTLVDQPYANEGTVVVTERVIQPHGGGSNPLEGTQHLQDVPYVMVRERESFLAPSSGVQPTLAMPNIAVGQNVTVTERVLAPASTLQSSYQIPTENSMTARNTTVSGAGVPGPLPDFGLEESGHSNSTITTSSTRVTKHSTVQHSYS | -0.9434 |  |
| -0.1559 | LIMA1 (protein, UniProt Q9UHB6 1-759, looked up) LIM domain and actin-binding …: MESSPFNRRQWTSLSLRVTAKELSLVNKNKSSAIVEIFSKYQKAAEETNMEKKRSNTENLSQHFRKGTLTVLKKKWENPGLGAESHTDSLRNSSTEIRHRADHPPAEVTSHAASGAKADQEEQIHPRSRLRSPPEALVQGRYPHIKDGEDLKDHSTESKKMENCLGESRHEVEKSEISENTDASGKIEKYNVPLNRLKMMFEKGEPTQTKILRAQSRSASGRKISENSYSLDDLEIGPGQLSSSTFDSEKNESRRNLELPRLSETSIKDRMAKYQAAVSKQSSSTNYTNELKASGGEIKIHKMEQKENVPPGPEVCITHQEGEKISANENSLAVRSTPAEDDSRDSQVKSEVQQPVHPKPLSPDSRASSLSESSPPKAMKKFQAPARETCVECQKTVYPMERLLANQQVFHISCFRCSYCNNKLSLGTYASLHGRIYCKPHFNQLFKSKGNYDEGFGHRPHKDLWASKNENEEILERPAQLANARETPHSPGVEDAPIAKVGVLAASMEAKASSQQEKEDKPAETKKLRIAWPPPTELGSSGSALEEGIKMSKPKWPPEDEISKPEVPEDVDLDLKKLRRSSSLKERSRPFTVAASFQSTSVKSPKTVSPPIRKGWSMSEQSEESVGGRVAERKQVENAKASKKNGNVGKTTWQNKESKGETGKRSKEGHSLEMENENLVENGADSDEDDNSFLKQQSPQEPKSLNWSSFVDNTFAEEFTTQNQKSQDVELWEGEVVKELSVEEQIKRNRYYDEDEDEE | -0.3717 |  |
|  | GEMIN4 (protein, UniProt P57678 1-1058, looked up) Gem-associated protein 4: MDLGPLNICEEMTILHGGFLLAEQLFHPKALAELTKSDWERVGRPIVEALREISSAAAHSQPFAWKKKALIIIWAKVLQPHPVTPSDTETRWQEDLFFSVGNMIPTINHTILFELLKSLEASGLFIQLLMALPTTICHAELERFLEHVTVDTSAEDVAFFLDVWWEVMKHKGHPQDPLLSQFSAMAHKYLPALDEFPHPPKRLRSDPDACPTMPLLAMLLRGLTQIQSRILGPGRKCCALANLADMLTVFALTEDDPQEVSATVYLDKLATVISVWNSDTQNPYHQQALAEKVKEAERDVSLTSLAKLPSETIFVGCEFLHHLLREWGEELQAVLRSSQGTSYDSYRLCDSLTSFSQNATLYLNRTSLSKEDRQVVSELAECVRDFLRKTSTVLKNRALEDITASIAMAVIQQKMDRHMEVCYIFASEKKWAFSDEWVACLGSNRALFRQPDLVLRLLETVIDVSTADRAIPESQIRQVIHLILECYADLSLPGKNKVLAGILRSWGRKGLSEKLLAYVEGFQEDLNTTFNQLTQSASEQGLAKAVASVARLVIVHPEVTVKKMCSLAVVNLGTHKFLAQILTAFPALRFVEEQGPNSSATFMVSCLKETVWMKFSTPKEEKQFLELLNCLMSPVKPQGIPVAALLEPDEVLKEFVLPFLRLDVEEVDLSLRIFIQTLEANACREEYWLQTCSPFPLLFSLCQLLDRFSKYWQLPKEKRCLSLDRKDLAIHILELLCEIVSANAETFSPDVWIKSLSWLHRKLEQLDWTVGLRLKSFFEGHFKCEVPATLFEICKLSEDEWTSQAHPGYGAGTGLLAWMECCCVSSGISERMLSLLVVDVGNPEEVRLFSKGFLVALVQVMPWCSPQEWQRLHQLTRRLLEKQLLHVPYSLEYIQFVPLLNLKPFAQELQLSVLFLRTFQFLCSHSCRDWLPLEGWNHVVKLLCGSLTRLLDSVRAIQAAGPWVQGPEQDLTQEALFVYTQVFCHALHIMAMLHPEVCEPLYVLALETLTCYETLSKTNPSVSSLLQRAHEQRFLKSIAEGIGPEERRQTLLQKMSSF |  | Difference (log2), PP1 vs untreated ([1]; log2 difference, pairwise comparison PP1 vs untreated, label-free quantification, 3 replicates each): 1.751; Difference (log2), untreated vs GFP (GFP-14-3-3β; log2 difference, pairwise comparison untreated vs GFP, label-free quantification, 3 replicates each): 0.9703 |
| -0.1579 | SF3B2 (protein, UniProt Q13435 1-895, looked up) Splicing factor 3B subunit 2: MATEHPEPPKAELQLPPPPPPGHYGAWAAQELQAKLAEIGAPIQGNREELVERLQSYTRQTGIVLNRPVLRGEDGDKAAPPPMSAQLPGIPMPPPPLGLPPLQPPPPPPPPPPGLGLGFPMAHPPNLGPPPPLRVGEPVALSEEERLKLAQQQAALLMQQEERAKQQGDHSLKEHELLEQQKRAAVLLEQERQQEIAKMGTPVPRPPQDMGQIGVRTPLGPRVAAPVGPVGPTPTVLPMGAPVPRPRGPPPPPGDENREMDDPSVGPKIPQALEKILQLKESRQEEMNSQQEEEEMETDARSSLGQSASETEEDTVSVSKKEKNRKRRNRKKKKKPQRVRGVSSESSGDREKDSTRSRGSDSPAADVEIEYVTEEPEIYEPNFIFFKRIFEAFKLTDDVKKEKEKEPEKLDKLENSAAPKKKGFEEEHKDSDDDSSDDEQEKKPEAPKLSKKKLRRMNRFTVAELKQLVARPDVVEMHDVTAQDPKLLVHLKATRNSVPVPRHWCFKRKYLQGKRGIEKPPFELPDFIKRTGIQEMREALQEKEEQKTMKSKMREKVRPKMGKIDIDYQKLHDAFFKWQTKPKLTIHGDLYYEGKEFETRLKEKKPGDLSDELRISLGMPVGPNAHKVPPPWLIAMQRYGPPPSYPNLKIPGLNSPIPESCSFGYHAGGWGKPPVDETGKPLYGDVFGTNAAEFQTKTEEEEIDRTPWGELEPSDEESSEEEEEEESDEDKPDETGFITPADSGLITPGGFSSVPAGMETPELIELRKKKIEEAMDGSETPQLFTVLPEKRTATVGGAMMGSTHIYDMSTVMSRKGPAPELQGVEVALAPEELELDPMAMTQKYEEHVREQQAQVEKEDFSDMVAEHAAKQKQKKRKAQPQDSRGGSKKYKEFKF | 2.239 |  |

Source: publication PMC7367873, “Dissecting the sequence determinants for dephosphorylation by the catalytic subunits of phosphatases PP1 and PP2A” (Nature Communications, 2020)
